The data set concerns Escherichia coli TOP10. Description: shrunken log2 fold change of peptide-encoding DNA abundance (4.5 h post-induction vs induction); higher = less antimicrobial activity (less host growth inhibition). To be noted: time post-induction: 4.5 h; library: site-saturation at positions 5, 18, 19, 20.
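Further: peptides expressed intracellularly from a pBAD plasmid library in pooled LB shake-flask culture, induced with 0.3% L-arabinose, DNA abundance read by NGS, three biological replicates, DESeq2 with apeglm shrinkage.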

Turning to RRIRSRPPRLPRPRPRPNEYPRP, the “shrunken log2 fold change” value is -1.02.
As for RRIRTRPPRLPRPRPRPAREPRP, the “shrunken log2 fold change” value turned out to be 0.44.
In the case of RRIRARPPRLPRPRPRPNDQPRP, the “shrunken log2 fold change” value was 0.226.
Next, RRIRCRPPRLPRPRPRPVDGPRP: 0.0228.
With RRIRGRPPRLPRPRPRPERAPRP the figure was 1.4; with RRIRVRPPRLPRPRPRPEPCPRP, -0.0507.
Next, RRIRDRPPRLPRPRPRPWPDPRP: 0.129; RRIRKRPPRLPRPRPRPPMMPRP: 0.587; RRIRQRPPRLPRPRPRPAHQPRP: 0.0203.
On to RRIRLRPPRLPRPRPRPGSYPRP, for which the “shrunken log2 fold change” value came to 0.186.
With RRIRWRPPRLPRPRPRPVCHPRP the figure was 0.0811.
As for RRIRQRPPRLPRPRPRPRLAPRP, the “shrunken log2 fold change” value was 0.594.
Next, RRIRPRPPRLPRPRPRPRTSPRP: 0.59; RRIRHRPPRLPRPRPRPPTIPRP: 0.215; RRIRDRPPRLPRPRPRPSGQPRP: -0.0305.
Next, RRIRFRPPRLPRPRPRPRPWPRP: 0.505.
Next, RRIRPRPPRLPRPRPRPHHCPRP: -0.257; RRIRGRPPRLPRPRPRPQYWPRP: 0.122; RRIRPRPPRLPRPRPRPVPCPRP: 0.0816.
Regarding RRIRNRPPRLPRPRPRPLKSPRP, the “shrunken log2 fold change” value was -0.258.
With RRIRFRPPRLPRPRPRPCGSPRP the figure was 0.06; with RRIRSRPPRLPRPRPRPGVFPRP, 0.146.
For RRIRQRPPRLPRPRPRPNFIPRP, the “shrunken log2 fold change” value is -0.402.
Next, RRIRRRPPRLPRPRPRPMTKPRP: 0.0629; RRIRFRPPRLPRPRPRPTKTPRP: -0.0652; RRIRFRPPRLPRPRPRPWPYPRP: 0.0261.
Next, RRIRERPPRLPRPRPRPEQDPRP: -0.0751; RRIRLRPPRLPRPRPRPPHQPRP: 0.168.
For RRIRPRPPRLPRPRPRPGFFPRP, the “shrunken log2 fold change” value is 0.216.
With RRIRLRPPRLPRPRPRPNQPPRP the figure was 0.0224; with RRIRTRPPRLPRPRPRPLAKPRP, 0.0419; with RRIRNRPPRLPRPRPRPYYAPRP, -0.0919.
With RRIRIRPPRLPRPRPRPMIWPRP the figure was -0.0224.
With RRIRCRPPRLPRPRPRPLWYPRP, the “shrunken log2 fold change” value is -0.307.
Consider RRIRFRPPRLPRPRPRPKILPRP, for which the “shrunken log2 fold change” value was 0.205.
With RRIRKRPPRLPRPRPRPPDHPRP the figure was 0.973; with RRIRTRPPRLPRPRPRPVCCPRP, -0.254.
For the sequence RRIRARPPRLPRPRPRPGISPRP, the “shrunken log2 fold change” value was 0.337.
Next, RRIRERPPRLPRPRPRPGAQPRP: -0.23; RRIRMRPPRLPRPRPRPVQEPRP: 0.051.
Next, RRIRDRPPRLPRPRPRPAAAPRP: 1.35; RRIRARPPRLPRPRPRPVIMPRP: -0.42; RRIRLRPPRLPRPRPRPLQMPRP: -0.135.
Take RRIRHRPPRLPRPRPRPVYKPRP: the “shrunken log2 fold change” value was -0.665.
With RRIRNRPPRLPRPRPRPVGVPRP the figure was -0.0443; with RRIRARPPRLPRPRPRPVYDPRP, 0.0386.
As for RRIRSRPPRLPRPRPRPNFCPRP, the “shrunken log2 fold change” value stood at 0.0353.
Next, RRIRNRPPRLPRPRPRPIDWPRP: 0.0533; RRIRYRPPRLPRPRPRPSLDPRP: -1.07; RRIRYRPPRLPRPRPRPEDSPRP: -0.0108.
With RRIRDRPPRLPRPRPRPWYYPRP the figure was 0.0606.
With RRIRWRPPRLPRPRPRPMEPPRP the figure was 0.0539; with RRIRERPPRLPRPRPRPGWGPRP, 0.521.
For the sequence RRIRPRPPRLPRPRPRPSSAPRP, the “shrunken log2 fold change” value is 0.0846.
With RRIRYRPPRLPRPRPRPRAFPRP the figure was -0.677; with RRIRGRPPRLPRPRPRPRPEPRP, 0.667.
With RRIRNRPPRLPRPRPRPDRAPRP the figure was 0.171.
For the sequence RRIRFRPPRLPRPRPRPELDPRP, the “shrunken log2 fold change” value is 0.0203.
With RRIRMRPPRLPRPRPRPMYAPRP, the “shrunken log2 fold change” value is 0.0486.
With RRIRRRPPRLPRPRPRPAHWPRP the figure was 0.672.
With RRIRCRPPRLPRPRPRPKRYPRP the figure was -0.0053; with RRIRFRPPRLPRPRPRPAQAPRP, 0.29.
With RRIRMRPPRLPRPRPRPFCTPRP the figure was -0.0819; with RRIRDRPPRLPRPRPRPQINPRP, -0.0439; with RRIRVRPPRLPRPRPRPRDMPRP, -0.0624.
For the sequence RRIRARPPRLPRPRPRPQGDPRP, the “shrunken log2 fold change” value is 0.207.
With RRIRYRPPRLPRPRPRPMFLPRP the figure was -0.377.
Take RRIRMRPPRLPRPRPRPATFPRP: the “shrunken log2 fold change” value was determined as 0.376.
With RRIRSRPPRLPRPRPRPVYYPRP, the “shrunken log2 fold change” value was -0.71.
Next, RRIRYRPPRLPRPRPRPDYHPRP: -0.0195.
As to RRIRPRPPRLPRPRPRPVKYPRP, the “shrunken log2 fold change” value was -0.303.
With RRIRSRPPRLPRPRPRPDMCPRP the figure was 0.0552.
With RRIRKRPPRLPRPRPRPNRNPRP the figure was -0.234; with RRIRRRPPRLPRPRPRPAGWPRP, 0.593.
Next, RRIRLRPPRLPRPRPRPGMKPRP: -0.0618; RRIRFRPPRLPRPRPRPHECPRP: 0.0366; RRIRWRPPRLPRPRPRPSGPPRP: 0.114.
As to RRIRARPPRLPRPRPRPKSCPRP, the “shrunken log2 fold change” value came to 0.129.
For the sequence RRIRPRPPRLPRPRPRPPPCPRP, the “shrunken log2 fold change” value came to 0.384.
With RRIRCRPPRLPRPRPRPQIRPRP the figure was -0.332; with RRIRLRPPRLPRPRPRPQKYPRP, -0.442.
On to RRIRRRPPRLPRPRPRPRDEPRP, for which the “shrunken log2 fold change” value stood at 0.48.
For RRIRNRPPRLPRPRPRPNRPPRP, the “shrunken log2 fold change” value is -0.0547.
With RRIRKRPPRLPRPRPRPEAQPRP the figure was 0.29; with RRIRERPPRLPRPRPRPHNVPRP, -0.42; with RRIRTRPPRLPRPRPRPVKKPRP, 0.0316.
With RRIRERPPRLPRPRPRPSYNPRP the figure was -0.924; with RRIRVRPPRLPRPRPRPEYPPRP, -0.322; with RRIRHRPPRLPRPRPRPKHCPRP, -0.447.
On to RRIRSRPPRLPRPRPRPVVYPRP, for which the “shrunken log2 fold change” value is -0.0697.
With RRIRHRPPRLPRPRPRPWKMPRP the figure was 0.00115; with RRIRARPPRLPRPRPRPIHNPRP, -0.0611.
Next, RRIRNRPPRLPRPRPRPVVNPRP: -0.244; RRIRYRPPRLPRPRPRPLGQPRP: -0.261; RRIRPRPPRLPRPRPRPHEEPRP: -0.000777.
Regarding RRIRGRPPRLPRPRPRPAGHPRP, the “shrunken log2 fold change” value came out at 0.562.
Regarding RRIRYRPPRLPRPRPRPTCQPRP, the “shrunken log2 fold change” value is -0.0443.
With RRIRVRPPRLPRPRPRPKHVPRP the figure was -0.101; with RRIRPRPPRLPRPRPRPFLSPRP, -0.312; with RRIRQRPPRLPRPRPRPSYCPRP, 0.103.
Next, RRIRPRPPRLPRPRPRPPMDPRP: 0.126; RRIRERPPRLPRPRPRPHSSPRP: -0.0464; RRIRPRPPRLPRPRPRPLGNPRP: -0.173.
Next, RRIRLRPPRLPRPRPRPDEPPRP: -0.0538.
Turning to RRIRQRPPRLPRPRPRPVQWPRP, the “shrunken log2 fold change” value was -0.03.
Next, RRIRFRPPRLPRPRPRPMRKPRP: 0.222; RRIRTRPPRLPRPRPRPIMLPRP: -0.32; RRIRIRPPRLPRPRPRPCENPRP: -0.00127.
With RRIRDRPPRLPRPRPRPHALPRP the figure was -0.225; with RRIRIRPPRLPRPRPRPIGWPRP, 0.0224; with RRIRARPPRLPRPRPRPDKFPRP, -0.19.
For the sequence RRIRGRPPRLPRPRPRPHDHPRP, the “shrunken log2 fold change” value was -0.027.
Next, RRIRIRPPRLPRPRPRPHGQPRP: -0.0468; RRIRPRPPRLPRPRPRPGFHPRP: -0.0164.
Take RRIRCRPPRLPRPRPRPWQHPRP: the “shrunken log2 fold change” value was -0.256.
Next, RRIRARPPRLPRPRPRPWGCPRP: 0.211; RRIRCRPPRLPRPRPRPRKTPRP: 0.103; RRIRVRPPRLPRPRPRPQPHPRP: 0.0498.
Next, RRIRSRPPRLPRPRPRPWQIPRP: 0.0843.
Next, RRIRNRPPRLPRPRPRPWIDPRP: -0.0152.
With RRIRGRPPRLPRPRPRPGHPPRP, the “shrunken log2 fold change” value was found to be 0.444.
Next, RRIRWRPPRLPRPRPRPSHEPRP: 0.0227.
As to RRIRRRPPRLPRPRPRPEGAPRP, the “shrunken log2 fold change” value was 1.05.
With RRIRVRPPRLPRPRPRPGVAPRP the figure was 0.377; with RRIRYRPPRLPRPRPRPHWLPRP, -0.0432.

The record behind these values is the supplement of paper PMC9112550, “Optimization of the antimicrobial peptide Bac7 by deep mutational scanning” (BMC Biology, 2022).
